From patent publication US20240083959A1 (INSTITUTE FOR BASIC SCIENCE, published 2024)

T1: recombinant Lectin-Olfactomedin-like domains of human LPHN1 (human, UniProt O94910 25-398, limits assumed)
T1 construct: domain: Lectin-Olfactomedin-like domains; also called Lec/Olf domains of LPHN1; Lec-Olf domains of LPHN1
T1 sequence (looked up): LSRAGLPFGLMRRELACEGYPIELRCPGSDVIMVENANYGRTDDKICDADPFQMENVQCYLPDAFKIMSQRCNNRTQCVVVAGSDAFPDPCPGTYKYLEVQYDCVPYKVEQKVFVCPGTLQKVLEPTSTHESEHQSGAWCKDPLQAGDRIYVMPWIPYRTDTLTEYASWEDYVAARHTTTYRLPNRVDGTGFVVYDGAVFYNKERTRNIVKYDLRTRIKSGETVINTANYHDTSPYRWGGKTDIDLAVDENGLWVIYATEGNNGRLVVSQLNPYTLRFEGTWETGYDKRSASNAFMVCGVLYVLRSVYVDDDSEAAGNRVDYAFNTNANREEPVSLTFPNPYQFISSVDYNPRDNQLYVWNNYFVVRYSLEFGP

T2: recombinant Lectin-Olfactomedin-like domains of human LPHN3 (human, UniProt Q9HAR2 20-393, limits assumed)
T2 construct: domain: Lectin-Olfactomedin-like domains; also called Lec/Olf domains of LPHN3; Lec-Olf domains of LPHN3
T2 sequence (looked up): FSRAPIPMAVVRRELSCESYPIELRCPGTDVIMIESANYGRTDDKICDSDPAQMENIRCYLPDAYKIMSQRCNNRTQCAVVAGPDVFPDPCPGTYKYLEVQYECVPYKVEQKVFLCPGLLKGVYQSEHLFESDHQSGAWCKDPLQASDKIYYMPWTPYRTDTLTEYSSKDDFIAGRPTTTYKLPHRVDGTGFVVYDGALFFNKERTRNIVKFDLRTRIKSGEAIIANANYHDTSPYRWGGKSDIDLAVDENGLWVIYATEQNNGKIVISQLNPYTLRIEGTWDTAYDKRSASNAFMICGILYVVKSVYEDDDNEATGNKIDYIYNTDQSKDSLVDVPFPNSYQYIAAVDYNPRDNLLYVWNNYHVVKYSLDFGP

T3: recombinant human LPHN2 lectin-olfactomedin-like domain, residues F26-P394 (human, UniProt O95490 26-394)
T3 construct: range 26-394; Coated on the plate at 100 nM; also called LPHN2 Lec/Olf domains; Lec-Olf domain
T3 sequence (looked up): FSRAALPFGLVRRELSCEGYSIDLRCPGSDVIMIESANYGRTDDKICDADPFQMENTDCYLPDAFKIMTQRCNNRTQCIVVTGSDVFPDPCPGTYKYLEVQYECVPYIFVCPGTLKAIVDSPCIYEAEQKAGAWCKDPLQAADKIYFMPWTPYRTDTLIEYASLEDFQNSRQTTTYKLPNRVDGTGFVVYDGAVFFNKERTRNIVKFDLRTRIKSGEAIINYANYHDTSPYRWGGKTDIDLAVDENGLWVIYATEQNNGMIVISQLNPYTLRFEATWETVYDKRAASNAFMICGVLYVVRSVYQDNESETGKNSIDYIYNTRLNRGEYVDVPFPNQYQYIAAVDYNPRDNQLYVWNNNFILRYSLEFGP

B1: recombinant human LRG1 (leucine-rich alpha-2 glycoprotein 1), residues V36-Q347, untagged, glycosylated (ligand)
chain: VTLSPKDCQVFRSDHGSSISCQPPAEIPGYLPADTVHLAVEFFNLTHLPANLLQGASKLQELHLSSNGLESLSPEFLRPVPQLRVLDLTRNALTGLPPGLFQASATLDTLVLKENQLEVLEVSWLHGLKALGHLDLSGNRLRKLPPGLLANFTLLRTLDLGENQLETLPPDLLRGPLQLERLHLEGNKLQVLGKDLLLPQPDLRYLFLNGNKLARVAAGAFQGLRQLDMLDLSNNSLASVPEGLWASLGQPNWDMRDGFDISGNPWICDQNLSDLYRWLQAQKDKMFSQNDTRCAGPEAVKGQTLLAVAKSQ
modifications: glycosyl groups at T37 (O-linked), N79, N186, N269 and N325 (N-linked), numbered on SEQ ID NO: 1
notes: also called wild-type LRG1; wild LRG1

How the values were obtained:
[1] = target: B1; assay: solid-phase binding assay (ELISA), plate coated with LPHN2 ectodomain variants
Protocol: (§1) Solid phase binding analysis was performed by a known method (Mol Cancer Ther 14, 470-479 (2015)). LPHN2 extracellular domain variants (Lec, Olf, GAIN/GPS domain; 100 nM) were added to MaxiSorp 96-well plates (Nunc) and incubated at room temperature for 1 hour. The wells were washed twice with PBS and then incubated with 1% bovine serum albumen (BSA) for 2 hours. After blocking, various amounts (0.001, 0.005, 0.01, 0.05, 0.1, 0.5, 1, 5 or 10 μM) of wild-type LRG1 or DG-LRG1 were added to 96-well plates coated with the indicated LPHN2 extracellular domain variants. LRG1 bound to the coated protein was detected by ELISA using an anti-LRG1 antibody (Cat #sc517443, Santa Cruz) and a peroxidase-conjugated anti-mouse secondary antibody (Cat #62-6520, Thermo Fisher Scientific).

[2] = target: T1, recombinant Lectin-Olfactomedin-like …; assay: solid-phase binding assay (ELISA), plate coated with 100 nM Lec-Olf domain
Protocol: (§2) FIG. 8E: results of solid phase binding assay to evaluate binding of wild-type LRG1 and DG-LRG1 to the Lec-Olf domains of LPHN1 and LPHN3. The plates were coated with Lec-Olf domains (100 nM) of LPHN1 and LPHN3. After washing and blocking, different amounts (0.001, 0.005, 0.01, 0.05, 0.1, 0.5, 1, 5 and 10 μM) of wild-type LRG1 or DG-LRG1 were added and LRG1 or DG-LRG1 bound to coated proteins were detected by ELISA using anti-LRG1 antibody and anti-mouse secondary antibody.

[3] = target: T2, recombinant Lectin-Olfactomedin-like …; assay: as above
Protocol: as §2

[4] = target: T3, recombinant human LPHN2 …; assay: solid-phase binding assay (ELISA), plate coated with LPHN2 Lec/Olf domains
Protocol: as §1
Whether or not deglycosylation of LRG1 (DG-LRG1) affects the binding affinity to LPHN2 in vitro (FIG. 7B) and ex vivo (FIGS. 7C and 8C) was determined. […] Cell surface binding rates of LRG1 and DG-LRG1 in HUVEC and HEK293T cells were evaluated and verified again (Table 3, FIGS. 7C and 8C)

Row | binding result [1] | Kd [4] [nM] | Binder | binding result [2] | binding result [3]
1 | binds |  | recombinant human LPHN2 olfactomedin-like domain, residues V135-P394 (receptor, UniProt O95490 135-394, looked up, range 135-394; Expressed with an Fc tag and released untagged with thrombin; also called Olf domain of LPHN2) VCPGTLKAIVDSPCIYEAEQKAGAWCKDPLQAADKIYFMPWTPYRTDTLIEYASLEDFQNSRQTTTYKLPNRVDGTGFVVYDGAVFFNKERTRNIVKFDLRTRIKSGEAIINYANYHDTSPYRWGGKTDIDLAVDENGLWVIYATEQNNGMIVISQLNPYTLRFEATWETVYDKRAASNAFMICGVLYVVRSVYQDNESETGKNSIDYIYNTRLNRGEYVDVPFPNQYQYIAAVDYNPRDNQLYVWNNNFILRYSLEFGP |  | 
2 |  | 920 | B1 | no binding (tested: 0.001 to 10 µM added) | no binding (tested: 0.001 to 10 µM added)
3 |  | 450 | deglycosylated LRG1 (LRG1 treated with PNGase F) (ligand, N-linked glycans removed with PNGase F (sites N79, N186, N269, N325 on SEQ ID NO: 1), For FACS it was conjugated with Alexa 647; also called DG-LRG1; deglycosylated form) VTLSPKDCQVFRSDHGSSISCQPPAEIPGYLPADTVHLAVEFFNLTHLPANLLQGASKLQELHLSSNGLESLSPEFLRPVPQLRVLDLTRNALTGLPPGLFQASATLDTLVLKENQLEVLEVSWLHGLKALGHLDLSGNRLRKLPPGLLANFTLLRTLDLGENQLETLPPDLLRGPLQLERLHLEGNKLQVLGKDLLLPQPDLRYLFLNGNKLARVAAGAFQGLRQLDMLDLSNNSLASVPEGLWASLGQPNWDMRDGFDISGNPWICDQNLSDLYRWLQAQKDKMFSQNDTRCAGPEAVKGQTLLAVAKSQ | no binding (tested: 0.001 to 10 µM added) | no binding (tested: 0.001 to 10 µM added)
